Assay results: US20170355757A1 (Regeneron, published 2017)
Substitutions are numbered along the chain they refer to. Names may count otherwise. Blank lines part the entries; values can stand above or below the binder they belong to.

Assays:
[1] = target: T1, Human C5 (human, UniProt P01031 19-1676); assay: SPR, mAb captured by anti-hFc, 37C
T1 construct: The natural protein has a beta and an alpha chain; also called complement factor 5; complement component 5
Procedure: (§1) Equilibrium dissociation constants (KD values) for C5 binding to purified anti-C5 antibodies were determined using a real-time surface plasmon resonance biosensor assay on a Biacore T200 instrument. The Biacore sensor surface was derivatized by amine coupling with a monoclonal mouse anti-human Fc antibody (GE Healthcare, # BR-1008-39) to capture anti-C5 antibodies expressed with human Fc constant regions. Biacore binding studies were conducted in HBST running buffer (0.01M HEPES pH 7.4, 0.15M NaCl, 3 mM EDTA, 0.05% v/v Surfactant P20).
(§2) Human C5 was obtained from a commercial source (EMD). Other C5 reagents were expressed with a C-terminal myc-myc-hexahistidine tag (subsequently referred to as C5-mmh). […] Association of all the C5 reagents to each of the captured monoclonal antibodies was monitored for 3 minutes and their dissociation in HBST running buffer was monitored for 8 minutes. All the binding kinetics experiments were performed at either 25° C. or 37° C. Kinetic association (kₐ) and dissociation (kd) rate constants were determined by fitting the real-time sensorgrams to a 1:1 binding model using Scrubber 2.0c curve fitting software. Binding dissociation equilibrium constants (KD) and dissociative half-lives (t %) were calculated from the kinetic rate constants as: KD (M)=kd/kₐ and t_{1/2} (min)=In2/(60×kd)

[2] = target: T2, monkey C5-mmh (monkey, UniProt P01031 19-1676 (human entry), limits assumed); assay: SPR, mAb captured by anti-hFc, 25C
T2 construct: Expressed with a C-terminal myc-myc-hexahistidine tag
T2 chain: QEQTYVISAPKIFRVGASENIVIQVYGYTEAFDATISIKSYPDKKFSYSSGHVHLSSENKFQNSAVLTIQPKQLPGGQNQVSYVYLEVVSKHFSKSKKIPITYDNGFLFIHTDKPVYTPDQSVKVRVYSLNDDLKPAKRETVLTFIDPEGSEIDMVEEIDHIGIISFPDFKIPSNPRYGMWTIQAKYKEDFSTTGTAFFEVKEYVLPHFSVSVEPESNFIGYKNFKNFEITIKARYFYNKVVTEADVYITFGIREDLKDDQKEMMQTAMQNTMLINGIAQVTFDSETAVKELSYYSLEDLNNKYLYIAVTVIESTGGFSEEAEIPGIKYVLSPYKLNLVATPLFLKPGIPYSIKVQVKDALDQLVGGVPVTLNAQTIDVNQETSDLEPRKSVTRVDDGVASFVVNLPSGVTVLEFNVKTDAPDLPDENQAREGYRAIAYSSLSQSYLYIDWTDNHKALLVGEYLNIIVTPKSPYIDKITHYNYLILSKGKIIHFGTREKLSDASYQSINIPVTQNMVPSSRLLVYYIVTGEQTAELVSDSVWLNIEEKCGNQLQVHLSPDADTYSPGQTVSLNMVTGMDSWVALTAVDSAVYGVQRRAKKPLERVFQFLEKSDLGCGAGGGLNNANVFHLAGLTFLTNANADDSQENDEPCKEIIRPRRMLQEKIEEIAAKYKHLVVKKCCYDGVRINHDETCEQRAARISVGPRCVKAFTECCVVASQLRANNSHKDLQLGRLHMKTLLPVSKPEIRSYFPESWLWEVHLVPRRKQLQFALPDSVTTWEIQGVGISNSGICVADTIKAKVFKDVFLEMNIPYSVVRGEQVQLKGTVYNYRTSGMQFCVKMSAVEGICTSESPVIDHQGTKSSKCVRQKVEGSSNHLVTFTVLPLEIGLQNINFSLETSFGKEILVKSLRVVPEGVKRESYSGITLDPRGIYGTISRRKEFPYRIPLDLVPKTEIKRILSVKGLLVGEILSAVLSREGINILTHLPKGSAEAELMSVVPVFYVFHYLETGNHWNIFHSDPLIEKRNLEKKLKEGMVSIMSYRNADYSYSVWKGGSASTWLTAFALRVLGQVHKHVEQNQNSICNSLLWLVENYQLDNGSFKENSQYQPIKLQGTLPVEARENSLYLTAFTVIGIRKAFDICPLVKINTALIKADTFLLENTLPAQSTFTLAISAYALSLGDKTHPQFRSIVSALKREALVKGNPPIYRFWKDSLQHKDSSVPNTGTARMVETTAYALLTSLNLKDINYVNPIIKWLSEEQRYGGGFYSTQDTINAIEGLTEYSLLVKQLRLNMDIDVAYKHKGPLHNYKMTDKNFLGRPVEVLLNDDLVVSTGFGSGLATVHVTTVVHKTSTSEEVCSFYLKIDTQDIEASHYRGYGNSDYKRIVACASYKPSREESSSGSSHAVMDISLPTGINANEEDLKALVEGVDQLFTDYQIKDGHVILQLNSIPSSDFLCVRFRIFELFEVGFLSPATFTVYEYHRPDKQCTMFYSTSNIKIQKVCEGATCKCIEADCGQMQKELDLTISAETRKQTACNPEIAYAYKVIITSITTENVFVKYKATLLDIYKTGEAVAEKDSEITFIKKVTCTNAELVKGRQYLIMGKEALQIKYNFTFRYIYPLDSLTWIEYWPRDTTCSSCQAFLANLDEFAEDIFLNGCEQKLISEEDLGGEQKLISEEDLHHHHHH
Procedure: as §1, §2

[3] = target: T1, Human C5; assay: SPR, mAb captured by anti-hFc, 25C
Procedure: as §1, §2

B1: H4H12166P6 (antibody, human IgG4, V domains shown)
VH: QVQLQESGPGLVKPSETLSLTCTVSGDSVSSSYWTWIRQPPGKGLEWIGYIYYSGSSNYNPSLKSRATISVDTSKNQFSLKLSSVTAADTAVYYCAREGNVDHTMIFDYWGQGTLVTVSS
VL: AIQMTQSPSSLSASVGDRVTITCRASQGIRNDLGWYQQKPGKAPKLLIYAASSLQSGVPSRFAGRGSGTDFTLTISSLQPEDFATYYCLQDFNYPWTFGQGTKVEIK
notes: human IgG4 Fc with S108P hinge mutation
100 nM Human C5 Bound (RU) [1]: 157 RU
Kd [1]: 0.875 nM
koff [1]: 0.000474 s⁻¹
kon [1]: 542000 M⁻¹ s⁻¹
t½ [1]: 24 min
100 nM monkey C5-mmh Bound (RU) [2]: 94 RU
Kd [2]: 11.1 nM
koff [2]: 0.00266 s⁻¹
kon [2]: 239000 M⁻¹ s⁻¹
t1/2 [2]: 4 min
100 nM Human C5 Bound (RU) [3]: 131 RU
Kd [3]: 0.375 nM
koff [3]: 0.000184 s⁻¹
kon [3]: 489000 M⁻¹ s⁻¹
t½ [3]: 63 min

B3: H4H12166P7 (antibody, human IgG4, V domains shown)
VH: B1 VH with G99H, H103T
VL: B1 VL with T97H
notes: as for B1
100 nM Human C5 Bound (RU) [1]: 105 RU
Kd [1]: 7.39 nM
koff [1]: 0.00258 s⁻¹
kon [1]: 349000 M⁻¹ s⁻¹
t½ [1]: 4 min
100 nM monkey C5-mmh Bound (RU) [2]: 36 RU
Kd [2]: 46.5 nM
koff [2]: 0.00633 s⁻¹
kon [2]: 136000 M⁻¹ s⁻¹
t1/2 [2]: 2 min
100 nM Human C5 Bound (RU) [3]: 92 RU
Kd [3]: 3.67 nM
koff [3]: 0.00101 s⁻¹
kon [3]: 274000 M⁻¹ s⁻¹
t½ [3]: 11 min

B5: H4H12177P2 (antibody, human IgG4, V domains shown)
VH: EVQLVESGGGVVQRGESLRLSCSASDFIFKDYAMYWVRQIPGKGLEWISLISGDGDTTWYGDSVKGRFTISRDNNENSLFLQMNDLRTEDTAMYYCARDMGWNFFQLQYWGQGTLVTVSS
VL: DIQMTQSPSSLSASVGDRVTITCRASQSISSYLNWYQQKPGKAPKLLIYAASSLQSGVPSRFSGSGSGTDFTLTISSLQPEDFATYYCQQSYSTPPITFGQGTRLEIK
100 nM Human C5 Bound (RU) [1]: 37 RU
Kd [1]: 13.1 nM
koff [1]: 0.000578 s⁻¹
kon [1]: 44200 M⁻¹ s⁻¹
t½ [1]: 20 min
100 nM monkey C5-mmh Bound (RU) [2]: 32 RU
Kd [2]: 21.5 nM
koff [2]: 0.000992 s⁻¹
kon [2]: 46200 M⁻¹ s⁻¹
t1/2 [2]: 12 min
100 nM Human C5 Bound (RU) [3]: 60 RU
Kd [3]: 0.959 nM
koff [3]: 6.29e-05 s⁻¹
kon [3]: 65600 M⁻¹ s⁻¹
t½ [3]: 184 min

Second part, the binder after the results:

100 nM Human C5 Bound (RU) [1]: 108 RU
Kd [1]: 0.93 nM
koff [1]: 0.000469 s⁻¹
kon [1]: 505000 M⁻¹ s⁻¹
t½ [1]: 25 min
100 nM monkey C5-mmh Bound (RU) [2]: 69 RU
Kd [2]: 8.5 nM
koff [2]: 0.00178 s⁻¹
kon [2]: 210000 M⁻¹ s⁻¹
t1/2 [2]: 6 min
100 nM Human C5 Bound (RU) [3]: 92 RU
Kd [3]: 0.395 nM
koff [3]: 0.000176 s⁻¹
kon [3]: 446000 M⁻¹ s⁻¹
t½ [3]: 66 min
B2: H4H12166P4 (antibody, human IgG4, V domains shown)
VH: B1 VH with H103T
VL: B1 VL with T97H
notes: as for B1

100 nM Human C5 Bound (RU) [1]: 129 RU
Kd [1]: 2.77 nM
koff [1]: 0.00122 s⁻¹
kon [1]: 440000 M⁻¹ s⁻¹
t½ [1]: 9 min
100 nM monkey C5-mmh Bound (RU) [2]: 56 RU
Kd [2]: 24 nM
koff [2]: 0.00346 s⁻¹
kon [2]: 144000 M⁻¹ s⁻¹
t1/2 [2]: 3 min
100 nM Human C5 Bound (RU) [3]: 110 RU
Kd [3]: 1.15 nM
koff [3]: 0.000328 s⁻¹
kon [3]: 285000 M⁻¹ s⁻¹
t½ [3]: 35 min
B4: H4H12166P5 (antibody, human IgG4, V domains shown)
VH: B1 VH with H103T, F107H
VL: B1 VL
notes: as for B1
